Experimental data taken from patent US20150344570A1 (published 2015).

The binders below were run against T1, FcγRIa (human, UniProt P12314 16-292) (assay: SPR (Biacore), antibody captured on antigen-peptide chip, FcγRIa as analyte; binding activity relative to control GpH7-B3/GpL16-k0 (HoCon Ab) x100).
T1 construct: extracellular domain; Soluble extracellular domain with C-terminal His tag, expressed in FreeStyle293 cells; analyte in Biacore; also called FcgRI; CD64; not shown: His tag attached to the C terminus
Protocol: (§1) Analysis of interaction between objective antibody and the FcγR was carried out using Biacore T100 (GE Healthcare). HBS-EP+ (GE Healthcare) was used as the running buffer, and the measurement temperature was set to 25° C. Chips produced by immobilizing the antigen peptide by the amine coupling method to a Series S Sencor Chip CM5 (GE Healthcare), or alternatively, chips produced by allowing preliminarily biotinylated antigen peptides to interact with and immobilize onto a Series S Sensor Chip SA (certified) (GE Healthcare) were used. Antibodies of interest were captured onto an antigen peptide-immobilized chip, and allowed to interact to each FcγR diluted with running buffer. To regenerate and repeatedly use the chip, the antibodies captured on the chip were washed off by reacting 10 mM glycine-HCl, pH 1.5.

T1 sequence (P12314 16-292): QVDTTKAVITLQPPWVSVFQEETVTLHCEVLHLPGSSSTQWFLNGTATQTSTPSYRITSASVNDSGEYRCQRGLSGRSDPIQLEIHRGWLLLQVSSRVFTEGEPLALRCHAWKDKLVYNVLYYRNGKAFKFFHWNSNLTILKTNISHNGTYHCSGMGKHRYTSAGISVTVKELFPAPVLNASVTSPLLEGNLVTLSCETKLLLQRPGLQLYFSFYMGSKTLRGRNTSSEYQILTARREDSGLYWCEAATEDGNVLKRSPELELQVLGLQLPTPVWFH

Ho/Con_1a | Binder
112 % of control (=100) | GpH7-B3 variant Y300_03V/GpL16-k0 (homodimerized antibody, Ho Ab) (antibody, human IgG1, kappa, Anti-glypican-3 IgG1 (G1d with K439E); same alteration in both H chains) heavy: not shown light: DIVMTQSPLSLPVTPGEPASISCQASESLVHSNRNTYLHWYLQKPGQSPQLLIYKVSNRFSGVPDRFSGSGSGTDFTLKISRVEAEDVGVYYCSQNTHVPPTFGQGTKVEIERTVAAPSVFIFPPSDEQLKSGTASVVCLLNNFYPREAKVQWKVDNALQSGNSQESVTEQDSKDSTYSLSSTLTLSKADYEKHKVYACEVTHQGLSSPVTKSFNRGEC
110 % of control (=100) | GpH7-B3 variant Y300_14T/GpL16-k0 (homodimerized antibody, Ho Ab) (antibody, human IgG1, kappa, Anti-glypican-3 IgG1 (G1d with K439E); same alteration in both H chains) heavy: not shown light: DIVMTQSPLSLPVTPGEPASISCQASESLVHSNRNTYLHWYLQKPGQSPQLLIYKVSNRFSGVPDRFSGSGSGTDFTLKISRVEAEDVGVYYCSQNTHVPPTFGQGTKVEIERTVAAPSVFIFPPSDEQLKSGTASVVCLLNNFYPREAKVQWKVDNALQSGNSQESVTEQDSKDSTYSLSSTLTLSKADYEKHKVYACEVTHQGLSSPVTKSFNRGEC
104 % of control (=100) | GpH7-B3 variant Y296_19Q/GpL16-k0 (homodimerized antibody, Ho Ab) (antibody, human IgG1, kappa, Anti-glypican-3 IgG1 (G1d with K439E); same alteration in both H chains) heavy: not shown light: DIVMTQSPLSLPVTPGEPASISCQASESLVHSNRNTYLHWYLQKPGQSPQLLIYKVSNRFSGVPDRFSGSGSGTDFTLKISRVEAEDVGVYYCSQNTHVPPTFGQGTKVEIERTVAAPSVFIFPPSDEQLKSGTASVVCLLNNFYPREAKVQWKVDNALQSGNSQESVTEQDSKDSTYSLSSTLTLSKADYEKHKVYACEVTHQGLSSPVTKSFNRGEC
110 % of control (=100) | GpH7-B3 variant Y300_19Q/GpL16-k0 (homodimerized antibody, Ho Ab) (antibody, human IgG1, kappa, Anti-glypican-3 IgG1 (G1d with K439E); same alteration in both H chains) heavy: not shown light: DIVMTQSPLSLPVTPGEPASISCQASESLVHSNRNTYLHWYLQKPGQSPQLLIYKVSNRFSGVPDRFSGSGSGTDFTLKISRVEAEDVGVYYCSQNTHVPPTFGQGTKVEIERTVAAPSVFIFPPSDEQLKSGTASVVCLLNNFYPREAKVQWKVDNALQSGNSQESVTEQDSKDSTYSLSSTLTLSKADYEKHKVYACEVTHQGLSSPVTKSFNRGEC
105 % of control (=100) | GpH7-B3 variant Y296_14T/GpL16-k0 (homodimerized antibody, Ho Ab) (antibody, human IgG1, kappa, Anti-glypican-3 IgG1 (G1d with K439E); same alteration in both H chains) heavy: not shown light: DIVMTQSPLSLPVTPGEPASISCQASESLVHSNRNTYLHWYLQKPGQSPQLLIYKVSNRFSGVPDRFSGSGSGTDFTLKISRVEAEDVGVYYCSQNTHVPPTFGQGTKVEIERTVAAPSVFIFPPSDEQLKSGTASVVCLLNNFYPREAKVQWKVDNALQSGNSQESVTEQDSKDSTYSLSSTLTLSKADYEKHKVYACEVTHQGLSSPVTKSFNRGEC
111 % of control (=100) | GpH7-B3 variant Y300_09D/GpL16-k0 (homodimerized antibody, Ho Ab) (antibody, human IgG1, kappa, Anti-glypican-3 IgG1 (G1d with K439E); same alteration in both H chains) heavy: not shown light: DIVMTQSPLSLPVTPGEPASISCQASESLVHSNRNTYLHWYLQKPGQSPQLLIYKVSNRFSGVPDRFSGSGSGTDFTLKISRVEAEDVGVYYCSQNTHVPPTFGQGTKVEIERTVAAPSVFIFPPSDEQLKSGTASVVCLLNNFYPREAKVQWKVDNALQSGNSQESVTEQDSKDSTYSLSSTLTLSKADYEKHKVYACEVTHQGLSSPVTKSFNRGEC
111 % of control (=100) | GpH7-B3 variant Y300_10E/GpL16-k0 (homodimerized antibody, Ho Ab) (antibody, human IgG1, kappa, Anti-glypican-3 IgG1 (G1d with K439E); same alteration in both H chains) heavy: not shown light: DIVMTQSPLSLPVTPGEPASISCQASESLVHSNRNTYLHWYLQKPGQSPQLLIYKVSNRFSGVPDRFSGSGSGTDFTLKISRVEAEDVGVYYCSQNTHVPPTFGQGTKVEIERTVAAPSVFIFPPSDEQLKSGTASVVCLLNNFYPREAKVQWKVDNALQSGNSQESVTEQDSKDSTYSLSSTLTLSKADYEKHKVYACEVTHQGLSSPVTKSFNRGEC

The binders below were run against T1, FcγRIa (assay: SPR (Biacore), antibody captured on antigen-peptide chip, FcγRIa as analyte; binding activity relative to control GpH7-A5/GpH7-B3/GpL16-k0 (HeCon Ab) x100).
Protocol: as §1

He/Con_1a | Binder
116 % of control (=100) | GpH7-A5/GpH7-B3 variant Y300_01G/GpL16-k0 (heterodimerized antibody, He Ab) (antibody, human IgG1, kappa, Anti-glypican-3 IgG1; alteration only in the GpH7-B3 (K439E) chain; other H chain is GpH7-A5 (D356K/H435R)) heavy 1: not shown heavy 2: not shown light: DIVMTQSPLSLPVTPGEPASISCQASESLVHSNRNTYLHWYLQKPGQSPQLLIYKVSNRFSGVPDRFSGSGSGTDFTLKISRVEAEDVGVYYCSQNTHVPPTFGQGTKVEIERTVAAPSVFIFPPSDEQLKSGTASVVCLLNNFYPREAKVQWKVDNALQSGNSQESVTEQDSKDSTYSLSSTLTLSKADYEKHKVYACEVTHQGLSSPVTKSFNRGEC
106 % of control (=100) | GpH7-A5/GpH7-B3 variant T335_18N/GpL16-k0 (heterodimerized antibody, He Ab) (antibody, human IgG1, kappa, Anti-glypican-3 IgG1; alteration only in the GpH7-B3 (K439E) chain; other H chain is GpH7-A5 (D356K/H435R)) heavy 1: not shown heavy 2: not shown light: DIVMTQSPLSLPVTPGEPASISCQASESLVHSNRNTYLHWYLQKPGQSPQLLIYKVSNRFSGVPDRFSGSGSGTDFTLKISRVEAEDVGVYYCSQNTHVPPTFGQGTKVEIERTVAAPSVFIFPPSDEQLKSGTASVVCLLNNFYPREAKVQWKVDNALQSGNSQESVTEQDSKDSTYSLSSTLTLSKADYEKHKVYACEVTHQGLSSPVTKSFNRGEC
106 % of control (=100) | GpH7-A5/GpH7-B3 variant T335_16H/GpL16-k0 (heterodimerized antibody, He Ab) (antibody, human IgG1, kappa, Anti-glypican-3 IgG1; alteration only in the GpH7-B3 (K439E) chain; other H chain is GpH7-A5 (D356K/H435R)) heavy 1: not shown heavy 2: not shown light: DIVMTQSPLSLPVTPGEPASISCQASESLVHSNRNTYLHWYLQKPGQSPQLLIYKVSNRFSGVPDRFSGSGSGTDFTLKISRVEAEDVGVYYCSQNTHVPPTFGQGTKVEIERTVAAPSVFIFPPSDEQLKSGTASVVCLLNNFYPREAKVQWKVDNALQSGNSQESVTEQDSKDSTYSLSSTLTLSKADYEKHKVYACEVTHQGLSSPVTKSFNRGEC
105 % of control (=100) | GpH7-A5/GpH7-B3 variant T335_19Q/GpL16-k0 (heterodimerized antibody, He Ab) (antibody, human IgG1, kappa, Anti-glypican-3 IgG1; alteration only in the GpH7-B3 (K439E) chain; other H chain is GpH7-A5 (D356K/H435R)) heavy 1: not shown heavy 2: not shown light: DIVMTQSPLSLPVTPGEPASISCQASESLVHSNRNTYLHWYLQKPGQSPQLLIYKVSNRFSGVPDRFSGSGSGTDFTLKISRVEAEDVGVYYCSQNTHVPPTFGQGTKVEIERTVAAPSVFIFPPSDEQLKSGTASVVCLLNNFYPREAKVQWKVDNALQSGNSQESVTEQDSKDSTYSLSSTLTLSKADYEKHKVYACEVTHQGLSSPVTKSFNRGEC
